Results: US20250197495A1 (Bristol-Myers Squibb, published 2025)

Target: T1, cynomolgus LAG-3 (cynomolgus)
T1 construct: whole, on cells; also called primate LAG-3
Experiment: flow cytometry on transfected CHO cells and activated cynomolgus T cells; which cell type gives which end is not stated

- EC50: 0.0215 to 0.0343 µM
B1: BMS-986016 (antibody, human IgG4 S228P, kappa, V domains shown)
VH: QVQLQQWGAGLLKPSETLSLTCAVYGGSFSDYYWNWIRQPPGKGLEWIGEINHRGSTNSNPSLKSRVTLSLDTSKNQFSLKLRSVTAADTAVYYCAFGYSDYEYNWFDPWGQGTLVTVSS
VL: EIVLTQSPATLSLSPGERATLSCRASQSISSYLAWYQQKPGQAPRLLIYDASNRATGIPARFSGSGSGTDFTLTISSLEPEDFAVYYCQQRSNWPLTFGQGTNLEIKR
notes: Fully human IgG4 with the stabilizing hinge mutation S228P; also called anti-LAG-3 antibody
